The values that follow come from publication PMC3678023 (Journal of Molecular Biology, 2013).

Series [1] concerns thermostabilised SERT mutants SAH6 and SAH7. The experiment in a line: Competition binding, statements covering both thermostabilised mutants. Conditions: over SAH6 and SAH7. The arrangement: species or system rat.
Description: The samples were incubated for 2 h at 30 °C and then filtered on 96-well glass fibre plates (Millipore) pre-treated with 200 μl of 0.1% polyethyleneimine. The filters were washed three times with 200 μl ice-cold SERT buffer [100 mM NaCl and 20 mM Tris (pH 7.4)], dried for 1 h at 50 °C prior to liquid scintillation counting. Competition binding assays were performed as above, but a range of concentrations of unlabelled ligand was included and a final concentration of 0.2 nM [^125I]RTI55 was used.
Series [2] has as its system T-REx-293 cells expressing SAH6-GFP, SAH7-GFP or SERT-GFP. The experiment in a line: [3H]5HT uptake assay in stable T-REx cell lines. In kind it is cell-based. Conditions: tetracycline-induced stable cell lines, 2 μM [3H]5HT, 25 °C, 3 min. The text has this:
[^3H]5HT was released by rupturing the cells with 2% SDS, which was quantified by liquid scintillation counting.

The procedure of series [3]: Thermostability assays usually involved adding the radioligand to detergent-solubilised membrane proteins,[9] but the only detergent that SERT was stable in was digitonin,[34] which is unsuitable for crystallography. Therefore, a different assay where an inhibitor was used to stabilise the transporter was developed. This entailed adding [^125I]RTI55 to the T-REx-SERT cells followed by detergent solubilisation and then the thermostability assay (heating samples at various temperatures for 30 min). The apparent Tm was defined as the temperature where 50% of the transporter still bound the radiolabelled inhibitor (Fig. S2).
The thermostability of detergent-solubilised [^125I]RTI55-bound SERT was determined as previously described for GPCRs.[5,6,8,9] Briefly, cells containing unpurified SERT were incubated with 1 nM [^125I]RTI55 for 30 min on ice, which were then solubilised with detergent on ice for 30 min before incubation at varying temperatures for 30 min. The radioligand bound to the membrane protein was separated from free radioligand by centrifugal gel filtration and the radioligand bound to the eluted transporter measured by liquid scintillation counting.

For ibogaine, the “Lower affinity versus wild-type transporter” value in series [1] is listed as “up to 90 fold”.

B1: wild-type SERT: rat serotonin transporter, wild type (protein, UniProt P31652 1-630, looked up)
Sodium-dependent serotonin …: METTPLNSQKVLSECKDREDCQENGVLQKGVPTTADRAEPSQISNGYSAVPSTSAGDEASHSIPAATTTLVAEIRQGERETWGKKMDFLLSVIGYAVDLGNIWRFPYICYQNGGGAFLLPYTIMAIFGGIPLFYMELALGQYHRNGCISIWRKICPIFKGIGYAICIIAFYIASYYNTIIAWALYYLISSLTDRLPWTSCTNSWNTGNCTNYFAQDNITWTLHSTSPAEEFYLRHVLQIHQSKGLQDLGTISWQLTLCIVLIFTVIYFSIWKGVKTSGKVVWVTATFPYIVLSVLLVRGATLPGAWRGVVFYLKPNWQKLLETGVWVDAAAQIFFSLGPGFGVLLAFASYNKFNNNCYQDALVTSVVNCMTSFVSGFVIFTVLGYMAEMRNEDVSEVAKDAGPSLLFITYAEAIANMPASTFFAIIFFLMLITLGLDSTFAGLEGVITAVLDEFPHIWAKRREWFVLIVVITCVLGSLLTLTSGGAYVVTLLEEYATGPAVLTVALIEAVAVSWFYGITQFCSDVKEMLGFSPGWFWRICWVAISPLFLLFIICSFLMSPPQLRLFQYNYPHWSIVLGYCIGMSSVICIPTYIIYRLISTPGTLKERIIKSITPETPTEIPCGDIRMNAV
B1: the “[3H]5HT transport” value in series [2] is “robust transport”. Also, in series [3] ([125I]RTI55-bound, solubilised in 0.1% DDM, heated 30 min), the “Apparent Tm” value turned out to be 28 °C. Further, the “Transporter remaining functional after heating” value in series [3] (single-temperature assay, 28 °C for 30 min) is recorded as “approximately 40%”.
